Reference: the supplement of paper PMC10567573

B1: ZNF649 (parent)
chain: YHTGKTPFVCPECGQPCSQKSGLI
B2: KRT18 (parent)
chain: RVRSLETENRRLESKIREHLEKKG

Variants of: B1
Experiment: protein stability index of a GFP-peptide fusion (GPS, HEK-293T) (PSI 1-6); higher = more stable
Conditions: c terminus: a fixed tail appended
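Also: lentivirally expressed fusions sorted by FACS into six bins by GFP to DsRed ratio, PSI derived from sequencing read proportions per bin multiplied by bin number.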

Protein stability index, by site and new letter:
T6: N 2.89, M 1.68, S 1.53, A 2.07, P 2.19
P7: N 1.98, M 1.22, W 2.04, D 2.05, L 2.12, T 2.52, G 2.05
G14: W 1.61, P 2.54, T 3.65, K 2.76, A 2.16, S 1.72, I 1.79, F 1.94, M 2.05
C13: P 2.27, Q 2.54, N 1.83, F 2.8, D 2.6, Y 3.41, R 2.37, E 2.87, T 2.99, H 3
C10: H 1, N 2.23, E 1.33, W 2.79, R 1.75, T 2.37, V 1.81, L 2.06, D 1.61, M 1.53, G 2.31, S 2.85, P 1.54, F 1.98, I 2.33
Q19: T 2.81, A 1.58, C 2.69, S 2.96, F 2, I 1.57
C17: E 1.48, Y 2.35, H 1.73, K 3.83, L 1.66, G 2.94, S 2.81
V9: A 3.38, D 2.39, T 2.43, R 2.24, W 2.49, N 3, L 2.99, H 2.47, Y 3.65
L23: Q 3.01, R 1.92, W 1.16, C 2.83, G 4.1, A 1.59, P 2.15, Y 1.72, T 2.2, K 2.56, N 3.38
F8: K 1.82, G 1.8, H 2.41, Y 1.54, T 1.67, P 2.46, C 1.83, I 2.24, D 2.17, E 2.52, L 2.1
G4: A 1.49, R 1.62, I 1.69, P 1.83, L 2.41, V 2.88, T 2.62, F 2.36, C 2.49, Q 1.51, E 2.89, Y 1.69, H 1.96, M 1.89
G22: N 2.3, L 2.97, C 2.19, I 2.15, F 2.34, Y 3, R 2.22, A 1.81, S 2.63, T 1.65
T3: I 1.56, N 2.03, H 2.78, C 2.38, K 2.87, D 2.68, R 2.23, V 2.46
P16: L 2.82, D 1.91, G 2.99, K 1.98, T 1.34, R 1.54, N 1.23, V 2.44, F 2.1, C 4.29
K20: S 2.53, A 2.05, E 1.35, Y 3.04, V 1.43, T 1.8, I 3.23, C 4.04, P 2.1, H 2.43
S18: H 1.26, F 2.27, T 2.5, I 2.47, G 1.43, A 2.31, W 1.82, Q 1.49, M 3.02
E12: W 2.06, L 2.16, A 1.96, T 2.07, F 2.31, M 1.23, Y 2.26, D 3.08, N 1.53, Q 1.9, S 2.11
H2: R 2.1, A 1.99, N 2.39, Y 2.42, M 2.51, V 1.96, D 3.69
I24: F 2.92, H 2.42, D 1.36, L 1.52, V 1.67, A 1.08, G 2.94, K 1.84, E 2.12, M 1.84, C 3.08, Q 2.33, P 1.54
Q15: K 2.35, G 1.45, R 1.63, V 1.5, S 2.21, T 2.35, I 1.62, M 2.16, C 1.89
Y1: P 3.28, R 2.69, T 3.06, V 3.5, L 2.51, I 2.69
P11: M 2.32, A 2.04, S 1.93, L 1.71, Q 1.57, H 2.16, V 2.33, F 2.44, G 1.43, N 1.62
S21: T 1.96, Y 2.56, D 1.76, Q 1.56, P 1.9, L 2.15, V 1.6, I 1.67, F 1.89, K 1.4, H 1.81
K5: F 1.88, N 1.81, T 1.13, G 2.54, Y 3.06, H 1.86, M 2.44, Q 1.86, L 2

Variants of: B2
Experiment: as above
Conditions: c terminus: a fixed tail appended

Protein stability index of substitutions, site by site:
R1: C 4.66, D 4.9, E 3.5, F 1.21, G 4.36, H 4.14, I 3.38, K 3.94, M 4.09, N 4.56, P 4.45, Q 4.7, V 4.19, Y 1.78
V2: A 4.64, C 4.78, D 4.83, E 5.32, H 4.07, I 4.21, K 4.77, L 3.55, M 3.82, N 4.16, P 4.65, Q 4.44, T 5.11, W 3.9, Y 4.54
R3: A 4.51, C 3.42, D 4.22, E 4.85, F 3.46, G 4.64, H 3.61, I 3.91, K 4.45, L 4.51, M 3.72, P 4.42, Q 4.37, T 4.46, V 4.44, W 3.43, Y 3.15
S4: A 4.24, C 3.5, E 4.48, F 4.29, G 4.35, H 3.84, I 2.97, K 4.26, M 3.64, N 4.32, P 4.58, R 4.29, V 3.54, Y 3.3
L5: A 4.54, C 3.41, D 4.64, F 4.5, K 3.99, M 4.77, N 5.06, Q 4.67, T 4.35, V 5.01, W 4.29, Y 4.32
E6: C 4.43, D 4.62, F 3.32, I 3.84, K 4.02, L 2.31, M 3.4, N 3.33, P 4.44, R 3.96, T 3.01, V 4.11, Y 2.53
T7: C 4.97, D 4.17, E 5.17, F 4.79, G 4.22, L 4.54, M 4.05, N 4.34, P 4.9, Q 4.13, R 4.1, S 4.25, V 3.82, Y 4.47
E8: A 4.08, C 4.22, D 3.96, G 4.42, H 4.36, I 4.4, K 3.89, L 4.33
